In this test the target is biotinylated HA306-318 peptide. In kind it is binding, influenza virus. To be noted: 20 hours at 37° C., flow cytometry, estimated, read-out: apparent dissociation constant KD of the biotinylated HA306-318 peptide complex.

The text below walks through data of patent US7442773B2, “Universal peptide-binding scaffolds and protein chips” (The Board of Trustees of The University of Illinois, priority 2004, dated 2008).

B1: DWP-7: evolved single-chain HLA-DR1 variant (α-linker-β) from library lib-αβ, SEQ ID NOs:35 and 36 (protein)
chain: RKEEHVITQAEFYLNPDQSGEFMFDFDGDEIFHVDMAKKETVWRLEEFGRFASFEAQGALANIAVDKANLEIMTKRSNYTPITNVPPEVTVLTNSPVELREPNVLICYIDKFTPPVVNVTWLRNGKPVTTGVSETVFLPREDHLFRKFHYLPFLPSTEDVYDCRVEHWGLDEPLLKHWEFNAPSPLPETTENLGGGGSGGGRSGGGGSGDTRPRFLWQHKFECHFFNGTERVRLLERCIYNQEESVRFDSDVGEYRAVTELGRPAAEYWNSQKDLLEQRRAAADTYCRHNYGVGESFTVRRRVEPKVTVYPSKTQPLQHHNLLVCSVSGFYPGSIEVRWFRNGQEEKAGVVSTGLIQNGDWTFQTLVMLETVPRSGEVYTCQVEHPSVTSPLTVEWRARSESAQSKLESRGPFEGKPIPNPLLGLDSTRTGHHHHHH
modifications: Sequence of mutant DWP-7
As to B1, the Kd was 5 µM.
